Reference: patent EP0607103A2, “Somatostatin analogs containing chelating groups and their radiolabeled compositions” (SANDOZ LTD., priority 1993, dated 1994)

Design: species or system rats
Conditions: rat, in vivo
Experimental: The affinity of the CHELATES OF THE INVENTION for somatostatin receptors can also be shown by in vivo testing, according to standard test methods, e.g. as disclosed in GB-A-2, 225,579. For example the compound of Example 2 gives a tumor accumulation of 1.9 ± 0.4 % injected dose per g (n = 6) 4 hours after injection into rats bearing an exocrine pancreatic tumor.

SMILES: C[C@@H](O)[C@@H]1NC(=O)[C@H](CCCCN)NC(=O)[C@@H](Cc2c[nH]c3ccccc23)NC(=O)[C@H](Cc2ccccc2)NC(=O)[C@@H](NC(=O)[C@@H](Cc2ccccc2)NC(=S)Nc2ccc(CC(CNCCN)CNCCN)cc2)CSSC[C@@H](C(=O)N[C@H](CO)[C@@H](C)O)NC1=O [Example 2, ^99mTc labelled compound of Example 1, metal not drawn]
- tissue uptake at 4 h: 1.9 ± 0.4 %ID/g
